The target in the data set is CsrA-His10 (Escherichia coli K-12, UniProt P69913 1-61). As to the kind of experiment: EMSA. A general note: A gel shift assay detects complexes by their altered migration in electrophoresis.

Consider GGGUUCAGGGACGUCAUUACGGGCAGGAUUGCCCACCC (structured_RNA) [FimR2-G23A-G24U], for which the binding result is reported as “no binding”.

Consider GGGUUCAAAGACGUCAUUACGGGCAGGGAUGCCCACCC (structured_RNA) [FimR2 ssRegion mutant], for which the binding result is “binds”.
